Data taken from paper doi:10.1101/2025.04.02.646877 (bioRxiv, 2025).

Biological target: the molecule itself
Assay: SEC-MALS

B1: lac repressor (LacI), functional dimeric form (residues 1-331) (domain or fragment, E. coli, UniProt P03023 1-331, looked up)
chain: MKPVTLYDVAEYAGVSYQTVSRVVNQASHVSAKTREKVEAAMAELNYIPNRVAQQLAGKQSLLIGVATSSLALHAPSQIVAAIKSRADQLGASVVVSMVERSGVEACKAAVHNLLAQRVSGLIINYPLDDQDAIAVEAACTNVPALFLDVSDQTPINSIIFSHEDGTRLGVEHLVALGHQQIALLAGPLSSVSARLRLAGWHKYLTRNQIQPIAEREGDWSAMSGFQQTMQMLNEGIVPTAMLVANDQMALGAMRAITESGLRVGADISVVGYDDTEDSSCYIPPLTTIKQDFRLLGQTSVDRLLQLSQGQAVKGNQLLPVSLVKRKTTLA
**Q.** How did the “stoichiometry N” value turn out when B1 was run?
**A.** 2

B2: ribose repressor (RbsR) (natural protein, E. coli, UniProt P0ACQ0 1-330, looked up)
chain: MATMKDVARLAGVSTSTVSHVINKDRFVSEAITAKVEAAIKELNYAPSALARSLKLNQTHTIGMLITASTNPFYSELVRGVERSCFERGYSLVLCNTEGDEQRMNRNLETLMQKRVDGLLLLCTETHQPSREIMQRYPTVPTVMMDWAPFDGDSDLIQDNSLLGGDLATQYLIDKGHTRIACITGPLDKTPARLRLEGYRAAMKRAGLNIPDGYEVTGDFEFNGGFDAMRQLLSHPLRPQAVFTGNDAMAVGVYQALYQAELQVPQDIAVIGYDDIELASFMTPPLTTIHQPKDELGELAIDVLIHRITQPTLQQQRLQLTPILMERGSA
**Q.** Which “stoichiometry N” value does the source give for B2 here?
**A.** 2
